Article doi:10.1101/2025.06.10.658867 (bioRxiv, 2025)
Numbering of substitutions follows the chain as printed. Numbers in names are those of the source.

B1: Fab portion of the anti-Siglec-10 mAb S10A (S10A Fab) (Fab, V domains shown)
VH: QIQLQQSGAELEKPGASVKMSCKASGYTFTSYWMHWVKQRPGQGLEWIGYINPDTDSTEYNQKFRDKATLTADKSSSTAYMQLSSLTSEDSAVYYCARPYYRYAGYAMDYWGQGTSVTVSS
VL: DIKMTQSPSSMYASLGERVTITCKASQDINSYLSWFQQKPGKSPKTLIYRANRLVDGVPSRFSGSGSGQVYSLTISSLEYEDLGIYYCLQYDEFPWTFGGGTKLEIK
B2: intracellularly GFP-tagged Siglec-10 R127A in THP-1 cells (receptor, human, UniProt Q96LC7 17-697, looked up)
chain: MDGRFWIRVQESVMVPEGLCISVPCSFSYPRQDWTGSTPAYGYWFKAVTETTKGAPVATNHQSREVEMSTRGRFQLTGDPAKGNCSLVIRDAQMQDESQYFFRVERGSYVAYNFMNDGFFLKVTALTQKPDVYIPETLEPGQPVTVICVFNWAFEECPPPSFSWTGAALSSQGTKPTTSHFSVLSFTPRPQDHNTDLTCHVDFSRKGVSAQRTVRLRVAYAPRDLVISISRDNTPALEPQPQGNVPYLEAQKGQFLRLLCAADSQPPATLSWVLQNRVLSSSHPWGPRPLGLELPGVKAGDSGRYTCRAENRLGSQQRALDLSVQYPPENLRVMVSQANRTVLENLGNGTSLPVLEGQSLCLVCVTHSSPPARLSWTQRGQVLSPSQPSDPGVLELPRVQVEHEGEFTCHARHPLGSQHVSLSLSVHYSPKLLGPSCSWEAEGLHCSCSSQASPAPSLRWWLGEELLEGNSSQDSFEVTPSSAGPWANSSLSLHGGLSSGLRLRCEAWNVHGAQSGSILQLPDKKGLISTAFSNGAFLGIGITALLFLCLALIIMKILPKRRTQTETPRPRFSRHSTILDYINVVPTAGPLAQKRNQKATPNSPRTPLPPGAPSPESKKNQKKQYQLPSFPEPKSSTQAPESQESQEELHYATLNFPGVRPRPEARMPKGTQADYAEVKFQ
B3: intracellularly GFP-tagged Siglec-10 WT in THP-1 cells (receptor, human, UniProt Q96LC7 17-697, looked up)
chain: B2 chain with A111R
B4: intracellularly GFP-tagged Siglec-10 R119A in THP-1 cells (receptor, human, UniProt Q96LC7 17-697, looked up)
chain: B2 chain with R103A, A111R

Legend:
[1] = biological target: Siglec-10_(d1-d2) WT fused to human IgG1 Fc (Siglec-10Fc WT) (human, UniProt Q96LC7); experiment: BLI
[2] = biological target: the molecule itself; experiment: DNA-PAINT super-resolution microscopy with nearest-neighbour distance analysis

| Binder | Kd [1] [nM] | mean percent dimers after tunicamycin [2] [%] | mean percent dimers before tunicamycin [2] [%] | percent dimers [2] [%] |
| --- | --- | --- | --- | --- |
| B1 | 1.1 | – | – | – |
| B2 | – | 69 | 59 | 47 |
| B3 | – | 50 | 61 | 67 |
| B4 | – | 69 | 72 | 69 |
